Results published in the supplement of paper PMC9112550, “Optimization of the antimicrobial peptide Bac7 by deep mutational scanning” (BMC Biology, 2022).

System: Escherichia coli TOP10
Assay: shrunken log2 fold change of peptide-encoding DNA abundance (4.5 h post-induction vs induction); higher = less antimicrobial activity (less host growth inhibition)
Settings: time post-induction: 4.5 h; library: site-saturation at positions 5, 18, 19, 20
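Further: peptides expressed intracellularly from a pBAD plasmid library in pooled LB shake-flask culture, induced with 0.3% L-arabinose, DNA abundance read by NGS, three biological replicates, DESeq2 with apeglm shrinkage.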

Sequence: RRIRGRPPRLPRPRPRPLRTPRP
- shrunken log2 fold change: 1.69

Sequence: RRIRARPPRLPRPRPRPKWHPRP
- shrunken log2 fold change: 0.235

Sequence: RRIRWRPPRLPRPRPRPHIAPRP
- shrunken log2 fold change: 0.0545

Sequence: RRIRNRPPRLPRPRPRPAHEPRP
- shrunken log2 fold change: -0.0423

Sequence: RRIRMRPPRLPRPRPRPFTRPRP
- shrunken log2 fold change: -0.0636

Sequence: RRIRKRPPRLPRPRPRPGLRPRP
- shrunken log2 fold change: 0.708

Sequence: RRIRNRPPRLPRPRPRPCLHPRP
- shrunken log2 fold change: -0.888

Sequence: RRIRKRPPRLPRPRPRPGKKPRP
- shrunken log2 fold change: -0.0204

Sequence: RRIRNRPPRLPRPRPRPLCTPRP
- shrunken log2 fold change: -0.194

Sequence: RRIRGRPPRLPRPRPRPQDPPRP
- shrunken log2 fold change: 0.337

Sequence: RRIRKRPPRLPRPRPRPVQCPRP
- shrunken log2 fold change: 0.0223

Sequence: RRIRKRPPRLPRPRPRPPWQPRP
- shrunken log2 fold change: 0.236

Sequence: RRIRSRPPRLPRPRPRPVQLPRP
- shrunken log2 fold change: 0.348

Sequence: RRIRQRPPRLPRPRPRPFYRPRP
- shrunken log2 fold change: -0.0149

Sequence: RRIRPRPPRLPRPRPRPCPLPRP
- shrunken log2 fold change: -0.208

Sequence: RRIRWRPPRLPRPRPRPKSQPRP
- shrunken log2 fold change: 0.263

Sequence: RRIRNRPPRLPRPRPRPLEGPRP
- shrunken log2 fold change: 0.033

Sequence: RRIRRRPPRLPRPRPRPMKCPRP
- shrunken log2 fold change: -0.0984

Sequence: RRIRARPPRLPRPRPRPFGAPRP
- shrunken log2 fold change: 0.929

Sequence: RRIRFRPPRLPRPRPRPLMIPRP
- shrunken log2 fold change: -0.266

Sequence: RRIRWRPPRLPRPRPRPHAHPRP
- shrunken log2 fold change: 0.0336

Sequence: RRIRKRPPRLPRPRPRPGNKPRP
- shrunken log2 fold change: -0.0985

Sequence: RRIRDRPPRLPRPRPRPRMQPRP
- shrunken log2 fold change: -0.196

Sequence: RRIRLRPPRLPRPRPRPQQKPRP
- shrunken log2 fold change: -0.167

Sequence: RRIRNRPPRLPRPRPRPVRWPRP
- shrunken log2 fold change: 0.703

Sequence: RRIRYRPPRLPRPRPRPGHGPRP
- shrunken log2 fold change: -0.111

Sequence: RRIRGRPPRLPRPRPRPFDWPRP
- shrunken log2 fold change: 0.0459

Sequence: RRIRRRPPRLPRPRPRPNCIPRP
- shrunken log2 fold change: 0.104

Sequence: RRIRSRPPRLPRPRPRPDDGPRP
- shrunken log2 fold change: 0.00408

Sequence: RRIRRRPPRLPRPRPRPYRGPRP
- shrunken log2 fold change: -0.191

Sequence: RRIRGRPPRLPRPRPRPCKHPRP
- shrunken log2 fold change: 0.112

Sequence: RRIRLRPPRLPRPRPRPCQPPRP
- shrunken log2 fold change: -0.0919

Sequence: RRIRRRPPRLPRPRPRPRLEPRP
- shrunken log2 fold change: 0.508

Sequence: RRIRVRPPRLPRPRPRPNETPRP
- shrunken log2 fold change: -0.033

Sequence: RRIRYRPPRLPRPRPRPAWQPRP
- shrunken log2 fold change: 0.0499

Sequence: RRIRYRPPRLPRPRPRPGRNPRP
- shrunken log2 fold change: 0.191

Sequence: RRIRKRPPRLPRPRPRPYHLPRP
- shrunken log2 fold change: -0.0564

Sequence: RRIRLRPPRLPRPRPRPFLAPRP
- shrunken log2 fold change: -0.141

Sequence: RRIRSRPPRLPRPRPRPEGIPRP
- shrunken log2 fold change: 0.0592

Sequence: RRIRMRPPRLPRPRPRPMNAPRP
- shrunken log2 fold change: -0.0277

Sequence: RRIRGRPPRLPRPRPRPPYCPRP
- shrunken log2 fold change: 0.204

Sequence: RRIRYRPPRLPRPRPRPYHMPRP
- shrunken log2 fold change: -0.00245

Sequence: RRIRGRPPRLPRPRPRPRAHPRP
- shrunken log2 fold change: 0.857

Sequence: RRIRIRPPRLPRPRPRPLGPPRP
- shrunken log2 fold change: 0.0624

Sequence: RRIRNRPPRLPRPRPRPTLNPRP
- shrunken log2 fold change: -0.105

Sequence: RRIRCRPPRLPRPRPRPSECPRP
- shrunken log2 fold change: -0.0818

Sequence: RRIRPRPPRLPRPRPRPSDAPRP
- shrunken log2 fold change: -0.0621

Sequence: RRIRWRPPRLPRPRPRPSHRPRP
- shrunken log2 fold change: -0.271

Sequence: RRIRGRPPRLPRPRPRPGTGPRP
- shrunken log2 fold change: 0.84

Sequence: RRIRQRPPRLPRPRPRPTKRPRP
- shrunken log2 fold change: 0.254

Sequence: RRIRVRPPRLPRPRPRPMSNPRP
- shrunken log2 fold change: 0.0709

Sequence: RRIRCRPPRLPRPRPRPDNIPRP
- shrunken log2 fold change: -0.0703

Sequence: RRIRARPPRLPRPRPRPNVQPRP
- shrunken log2 fold change: 0.109

Sequence: RRIRGRPPRLPRPRPRPFIDPRP
- shrunken log2 fold change: 0.585

Sequence: RRIRFRPPRLPRPRPRPWNGPRP
- shrunken log2 fold change: 0.228

Sequence: RRIRMRPPRLPRPRPRPSINPRP
- shrunken log2 fold change: 0.0424

Sequence: RRIRARPPRLPRPRPRPKTDPRP
- shrunken log2 fold change: 0.876

Sequence: RRIRCRPPRLPRPRPRPDSWPRP
- shrunken log2 fold change: -0.115

Sequence: RRIRQRPPRLPRPRPRPIMNPRP
- shrunken log2 fold change: -1.23

Sequence: RRIRGRPPRLPRPRPRPDCFPRP
- shrunken log2 fold change: 1.13

Sequence: RRIRIRPPRLPRPRPRPKEIPRP
- shrunken log2 fold change: -0.113

Sequence: RRIRMRPPRLPRPRPRPIHAPRP
- shrunken log2 fold change: -0.0962

Sequence: RRIRARPPRLPRPRPRPTPNPRP
- shrunken log2 fold change: 0.602

Sequence: RRIRHRPPRLPRPRPRPAYEPRP
- shrunken log2 fold change: 0.0981

Sequence: RRIRTRPPRLPRPRPRPQYNPRP
- shrunken log2 fold change: -0.856

Sequence: RRIRVRPPRLPRPRPRPLKQPRP
- shrunken log2 fold change: -0.0521

Sequence: RRIRVRPPRLPRPRPRPTNNPRP
- shrunken log2 fold change: -0.398

Sequence: RRIRLRPPRLPRPRPRPFSEPRP
- shrunken log2 fold change: -0.0881

Sequence: RRIRYRPPRLPRPRPRPVCRPRP
- shrunken log2 fold change: -0.0607

Sequence: RRIRYRPPRLPRPRPRPLWRPRP
- shrunken log2 fold change: 0.0545

Sequence: RRIRHRPPRLPRPRPRPRYDPRP
- shrunken log2 fold change: -0.0205

Sequence: RRIRVRPPRLPRPRPRPHVWPRP
- shrunken log2 fold change: -0.145

Sequence: RRIRTRPPRLPRPRPRPNQQPRP
- shrunken log2 fold change: 0.00192

Sequence: RRIRWRPPRLPRPRPRPCSRPRP
- shrunken log2 fold change: -0.162

Sequence: RRIRGRPPRLPRPRPRPRQRPRP
- shrunken log2 fold change: 0.815

Sequence: RRIRRRPPRLPRPRPRPTHHPRP
- shrunken log2 fold change: 0.8

Sequence: RRIRPRPPRLPRPRPRPRGSPRP
- shrunken log2 fold change: 0.285

Sequence: RRIRRRPPRLPRPRPRPYRMPRP
- shrunken log2 fold change: -0.292

Sequence: RRIRHRPPRLPRPRPRPDAFPRP
- shrunken log2 fold change: -0.0702

Sequence: RRIRWRPPRLPRPRPRPVDVPRP
- shrunken log2 fold change: -0.0135

Sequence: RRIRVRPPRLPRPRPRPQKSPRP
- shrunken log2 fold change: -0.162

Sequence: RRIRKRPPRLPRPRPRPSNGPRP
- shrunken log2 fold change: -0.00174

Sequence: RRIRARPPRLPRPRPRPFYMPRP
- shrunken log2 fold change: -0.45

Sequence: RRIRCRPPRLPRPRPRPYPYPRP
- shrunken log2 fold change: -0.248

Sequence: RRIRFRPPRLPRPRPRPCTLPRP
- shrunken log2 fold change: -0.471

Sequence: RRIRDRPPRLPRPRPRPDDRPRP
- shrunken log2 fold change: 0.108

Sequence: RRIRWRPPRLPRPRPRPAYFPRP
- shrunken log2 fold change: 0.125

Sequence: RRIRTRPPRLPRPRPRPDEDPRP
- shrunken log2 fold change: 0.0169

Sequence: RRIRSRPPRLPRPRPRPICMPRP
- shrunken log2 fold change: 0.177

Sequence: RRIRQRPPRLPRPRPRPNLMPRP
- shrunken log2 fold change: -0.196

Sequence: RRIRSRPPRLPRPRPRPGGVPRP
- shrunken log2 fold change: 0.326

Sequence: RRIRFRPPRLPRPRPRPFRCPRP
- shrunken log2 fold change: -0.227

Sequence: RRIRRRPPRLPRPRPRPIFIPRP
- shrunken log2 fold change: -0.0166

Sequence: RRIRRRPPRLPRPRPRPVQVPRP
- shrunken log2 fold change: 0.189

Sequence: RRIRSRPPRLPRPRPRPAPTPRP
- shrunken log2 fold change: 0.732

Sequence: RRIRPRPPRLPRPRPRPNNQPRP
- shrunken log2 fold change: -0.353

Sequence: RRIRKRPPRLPRPRPRPSGCPRP
- shrunken log2 fold change: -0.00526

Sequence: RRIRERPPRLPRPRPRPTKFPRP
- shrunken log2 fold change: -0.364

Sequence: RRIRTRPPRLPRPRPRPCPNPRP
- shrunken log2 fold change: -0.000921

Sequence: RRIRIRPPRLPRPRPRPLRTPRP
- shrunken log2 fold change: -0.0568

Sequence: RRIRSRPPRLPRPRPRPQNDPRP
- shrunken log2 fold change: -0.13

Sequence: RRIRQRPPRLPRPRPRPLPSPRP
- shrunken log2 fold change: -0.0393

Sequence: RRIRWRPPRLPRPRPRPESNPRP
- shrunken log2 fold change: 0.535

Sequence: RRIRERPPRLPRPRPRPPLEPRP
- shrunken log2 fold change: 0.161

Sequence: RRIRCRPPRLPRPRPRPMMYPRP
- shrunken log2 fold change: -0.12

Sequence: RRIRIRPPRLPRPRPRPHVMPRP
- shrunken log2 fold change: -0.492

Sequence: RRIRARPPRLPRPRPRPQQNPRP
- shrunken log2 fold change: 0.166

Sequence: RRIRYRPPRLPRPRPRPSNKPRP
- shrunken log2 fold change: -0.953

Sequence: RRIRERPPRLPRPRPRPWMDPRP
- shrunken log2 fold change: -0.101

Sequence: RRIRLRPPRLPRPRPRPCMYPRP
- shrunken log2 fold change: -0.674

Sequence: RRIRRRPPRLPRPRPRPMWYPRP
- shrunken log2 fold change: 0.0371

Sequence: RRIRSRPPRLPRPRPRPLNWPRP
- shrunken log2 fold change: -0.0815

Sequence: RRIRYRPPRLPRPRPRPWDAPRP
- shrunken log2 fold change: -0.796

Sequence: RRIRTRPPRLPRPRPRPICNPRP
- shrunken log2 fold change: -0.00195

Sequence: RRIRTRPPRLPRPRPRPEPEPRP
- shrunken log2 fold change: 0.323

Sequence: RRIRERPPRLPRPRPRPIFFPRP
- shrunken log2 fold change: 0.0602

Sequence: RRIRDRPPRLPRPRPRPFMLPRP
- shrunken log2 fold change: -0.342

Sequence: RRIRGRPPRLPRPRPRPICAPRP
- shrunken log2 fold change: 1.2

Sequence: RRIRSRPPRLPRPRPRPESGPRP
- shrunken log2 fold change: 0.351

Sequence: RRIRMRPPRLPRPRPRPARDPRP
- shrunken log2 fold change: 1.65

Sequence: RRIRVRPPRLPRPRPRPMETPRP
- shrunken log2 fold change: -0.074

Sequence: RRIRKRPPRLPRPRPRPIISPRP
- shrunken log2 fold change: -0.132

Sequence: RRIRTRPPRLPRPRPRPHAPPRP
- shrunken log2 fold change: -0.046

Sequence: RRIRFRPPRLPRPRPRPTPTPRP
- shrunken log2 fold change: 0.471

Sequence: RRIRKRPPRLPRPRPRPMLVPRP
- shrunken log2 fold change: -0.0603
